Patent publication US20220256794A1, “TERPENE SYNTHASES AND TRANSPORTERS” (The State of Israel, Ministry of Agriculture & Rural …, priority 2019, published 2022)

Experiment: Terpene synthase activity assay with FPP
Assay type: biochemical
Details: TPS expressed in E. coli; 10 μM FPP, overnight at 30° C., SPME GC-MS
Method: Putative terpene synthase genes were synthesized by the TWIST Co., and cloned into Novagen pET-28a(+) with a 6×His tag at its' N-terminus. The recombinant plasmid was then sequenced for authentication and transformed into BL21(DE3) pLysS and pLysE strains of E. coli (Agilent Technologies) for heterologous expression. An overnight culture was used to inoculate a 20-200 mL culture, induced with 0.1 mM IPTG at an OD 600 nm >0,8 for initiation of recombinant protein translation then incubated at 18° C. and 250 RPM overnight. The cells were collected by centrifugation and the recombinant enzymes were extracted either as a crude extract or purified on a Ni-NTA agarose resin as previously described [Gonda I. et al., The Plant Journal (2013) 61, 458-472]. […]
For solid-phase microextraction (SPME) analysis, a 57298-U SPME fiber assembly Divinylbenzene/Carboxen/Polydimethylsiloxane (DVB/CAR/PDMS, Supelco) needle size 23 ga, StableFlex, was used with an autosampler and analyzed by GC-MS as previously described [Davidovich-Rikanati R. et al., Nature Biotech (2007) 25:899-901; Davidovich-Rikanati R. et al., Plant J (2008) 56:228-238]. […]

Row | Molecule | Sesquiterpenes produced with FPP
1 | AG046-1: Cannabis terpene synthase gene product, amino acid SEQ ID NO: 36 (protein, Terpene Synthase Gene Amino acid sequence of the 45 identified gene products) MIITGVISSSTPIFKDQPAAIVRRSGNYKPTLWDAHFFQSLQVIYTEESYGKRINELKEDVRRILEKEAENPLVKLEQINDLSRLGISYHFEDQIKTILNLTFNNNNALWKKDNLYATALHFKLLRQYGFSPVSSEVFNAFKDEKKEFKESLSKDVKGMVCLYEASFYSFRGEPILDEARDFTTKHLKQYLMTRQSQFTRVDHHDDDDHDLVKLVEHALDLPLHWRLPRLEARWFIDMYAERNYDMNPTFLDFAKLDYNFVQSAYQKELKYISRWWSGSRLTERLPFARDRVVEIFYSAVALKYEAEFGFVRTVMTKIGLLLTLMDDIYDVYGTLDELQLFLEAIERWNINELDQLPDYMKILFVAFYNNVNEISYYVLKENGIHTIKYLKKALGDLCKCYMEEAKWFHSGHIPSLEEFIENGWKSITIPLCLIYHYCLITTSITEQDMEHLLQYPTILRVSGTVFRFIDDLGTSSDELERGDNPSSIQCYMREKGVSENESREHIWNLISEGWKEINEVKASNSPYSQVFIESAIDFVRGAMEMYHKGDGFGTNQDRYLKTKVVNMFFDPIPI | bisabolene
2 | 792-3: Cannabis terpene synthase gene product, amino acid SEQ ID NO: 8 (protein, Terpene Synthase Gene Amino acid sequence of the 45 identified gene products) MSYQVLASSQNDKVSKIVRPTTTYQPSIWGERFLQYSISDQDFSYKKQRVDELKEVVRREVFLECYDNVSYVLKIVDDVQRLGLSYHFENEIEKALQHIYDNTIHQNHKDEDLHDTSTRFRLLRQHGFMVSSNIFKIFKDEQGNFKECLITDILGLLSLYEASHLSYIGENILNEALAFTTTHLHQFVKNEKTHPLSNEVLLALQRPIRKSLERLHARHYISSYENKISHNKTLLELAKLDFNLLQCLHRKELSQISRWWKEIDFVHKLPFARDRIVELYLWLLGVFHEPELSLARIISTKVIALASVADDIYDAYGTFEELELLTESINRWDLNCADQLRPECLQTFYKVLLNCYEEFESELGKEESYKVYYAREAMKRLLGAYFSEARWLHEGYFPSFDEHLKVSLISCGYTMMIVTSLIGMKDCVTKQDFEWLSKDPKIMRDCNILCRFMDDIVSHKFEQQRDHSPSTVESYMRQYGVSEQEACDELRKQVINSWKEINKAFLRPSNVPYPVLSLVLNFSRVMDLLYKDGDGYTHIGKETKNSVVALLIDQIP | caryophyllene, humulene
